Experimental data as given in patent US20050032689A1, “Methods for treatment or diagnosis of disease or disorders associated with an APB domain” (New York University, priority 1994, published 2005).

Molecular target: T1, EGF receptor (Homo sapiens, UniProt P00533)
T1 construct: expressed in transfected cells; host or cells: HER14 (NIH 3T3 cells expressing human EGF receptor)
Experiment: Binding of GST fusion proteins on glutathione-agarose beads to EGF receptor from HER14 cell lysates, immunoblot
Method: FIGS. 2A and 2B. Association of GST-Shc 1-209 with the EGF Receptor (EGFR). A, HER14 lysates from either EGF-stimulated (+) or unstimulated (−) cells (5×10^6 cells) were incubated with 3 μg of GST fusion protein immobilized on glutathione-agarose beads. The bound proteins were washed, subjected to SDS-PAGE, transferred to nitrocellulose and immunoblotted with anti-EGF receptor antibody, anti-C (anti-EGFR). HER14 lysate (4×10^5 cells) was run directly on the gel in lanes 5 and 6. B, unstimulated HER14 lysates (5×10^6 cells) were immunoprecipitated with anti-EGFR antibody (mAb 108). The immobilized receptor was then phosphorylated (+) by the addition of 5 mM MnCl2 and 50 μM ATP or left unphosphorylated (−) by adding MnCl2 alone. Bacterial lysates containing 5 μg of GST, GST-Grb7, and GST-Shc 1-209 were then diluted in 1 ml of 1% Triton X-100 lysis buffer, added to the immobilized receptor and incubated at 4° C. for 90 min. The bound proteins were washed and together with 40 μl of the post-binding supernatant separated by SDS-PAGE and transferred to nitrocellulose. The bound fractions (left panel) and supernatants (right panel) were immunoblotted with anti-GST. FIGS. 4A, 4B, 4C and 4D. Binding of Shc fragments to growth factor receptors. A, schematic diagram illustrating the Shc fragments used in binding studies. Full length murine p52^shc is indicated in (i) while (ii)-(vi) were generated as GST fusion proteins for use in receptor binding studies. B, association of various GST fusion proteins with activated EGF receptor (EGFR). Binding was performed as in FIG. 2A with the exception that all lysates were stimulated with EGF. All studies used 3 μg of fusion proteins except for the Shc SH2 where 10 μg was used. Immunoblotting was performed with anti-phosphotyrosine. C, binding of Shc fusion proteins to NIH 3T3 cells expressing a HER1/2 chimera. This chimera consists of the EGF receptor extracellular binding domain and the intracellular region of HER2/neu. After stimulation of these cells with EGF (200 ng/ml) lysates were prepared and binding as well as blotting studies were performed as in B using anti-phosphotyrosine antibody. D, binding of Shc 1-209 to TrkA. Beads containing 10 μg of GST fusion proteins Shc 1-209, phospholipase C-γ (PLC-γ) SH2 (contains both N and C SH2 domains), or GST alone were added to lysates from 2×10^7 PC12 cells stimulated with 50 ng/ml nerve growth factor (lanes 1, 2, and 4). The binding of the same amount of lysate to 2 μg of anti-TrkA antibody is shown as a positive control and to indicate the position of TrkA on the blot (lane 3). Otherwise, the binding and blotting were performed as in B using anti-phosphotyrosine antibody. […]

B1: Shc 1-209: Shc amino terminus, first 209 amino acids of murine p52Shc, generated as a GST fusion protein (protein, UniProt P98083 1-209, looked up, fragment)
chain: MDLLPPKPKYNPLRNESLSSLEEGASGSTPPEELPSPSASSLGPILPPLPGDDSPTTLCSFFPRMSNLKLANPAGGRLGPKGEPGKAAEDGEGSAGAALRDSGLLPLLQDMNKLSGGGGRRTRVEGGQLGGEEWTRHGSFVNKPTRGWLHPNDKVMGPGVSYLVRYMGCVEVLQSMRALDFNTRTQVTREAISLVCEAVPGAKGATRRR
modifications: GST fusion
notes: Shc amino terminus, first 209 amino acids of murine p52Shc, generated as a GST fusion protein
EGF receptor binding compared with the Shc SH2 domain (3 μg fusion protein vs 10 μg Shc SH2, EGF-stimulated lysates): comparable or superior | binding to EGF receptor (GST fusion protein, lysates of EGF-stimulated or unstimulated cells): bound only to the activated tyrosine-phosphorylated receptor
